# Source: the supplement of paper PMC9170038
# Test system: MS2 coat protein
# Assay: apparent KD of MS2 coat protein; designed switch direction (-1 OFF switch, 1 ON switch): -1; higher = weaker reporter binding
# Conditions: Eterna round: R98
# Experimental: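 RNA-MaP: designed FMN/MS2 RNA switches (84 nt design region) are transcribed on-chip within common flanks and titrated with SNAP-549-labelled MS2 coat protein (about 1-3000 nM) in 100 mM Tris pH 7.5, 80 mM KCl, 4 mM MgCl2, without or with 200 uM FMN. Median apparent KD per design; activation ratio = KD,OFF / KD,ON.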
Sequence,apparent KD of MS2 coat protein (input ligand: FMN 200 uM),apparent KD of MS2 coat protein (input ligand: none)
GCACUGGAUGUAGGAUAUCAGGACGAUAAGUCCUGAGAAGGACAUGAGGAUCACCCAUGUCCCAAAACCAGUGCAUAUAAUAUA [Denovo Exng1 31],19.8 nM,14.3 nM
GCGCGCGCGUCAGGAUAUACAUGAGGAUCACCCAUGUGUGCGCGCGCGCGCGCGCGCGCGCGCGUGUAGAAGGGACGCUGUCGC [Incredible-Exclusion NG 2],20.6 nM,14.4 nM
UCAGGUCGGGAAGGAUAUCGGCCGCAGAGAGCUCGAGAAGGUCCCGACAUGAGGAUCACCCAUGUUGAAGGAUCCUAACGUGCC [Maonan],35.4 nM,38.3 nM
